# Measured values taken from patent publication US20210388330A1.
# Experiments:
# [1] = target: soluble mannose-6-phosphate receptor (sM6PR); assay: Biacore (SPR) analysis of binding to sM6PR, two KD values fitted
# [2] = target: soluble mannose-6-phosphate receptor (sM6PR); assay: Biacore (SPR), dpIDS compared with untreated IDS
KD1 [1] [nM],KD2 [1] [nM],fold reduction of binding affinity of KD2 against IDS [2] [fold],Binder
58.2,0.813,,"Recombinant iduronate-2-sulfatase (IDS), produced in human HT-1080 cells (enzyme, mannose-6-phosphate residues on N-linked oligomannose glycans; M6P content 2.56 pmol M6P/pmol protein (Table 3)) SETQANSTTDALNVLLIIVDDLRPSLGCYGDKLVRSPNIDQLASHSLLFQNAFAQQAVCAPSRVSFLTGRRPDTTRLYDFNSYWRVHAGNFSTIPQYFKENGYVTMSVGKVFHPGISSNHTDDSPYSWSFPPYHPSSEKYENTKTCRGPDGELHANLLCPVDVLDVPEGTLPDKQSTEQAIQLLEKMKTSASPFFLAVGYHKPHIPFRYPKEFQKLYPLENITLAPDPEVPDGLPPVAYNPWMDIRQREDVQALNISVPYGPIPVDFQRKIRQSYFASVSYLDTQVGRLLSALDDLQLANSTIIAFTSDHGWALGEHGEWAKYSNFDVATHVPLIFYVPGRTASLPEAGEKLFPYLDPFDSASQLMEPGRQSMDLVELVSLFPTLAGLAGLQVPPRCPVPSFHVELCREGKNLLKHFRFRDLEEDPYLPGNPRELIAYSQYPRPSDIPQWNSDKPSLKDIKIMGYSIRTIDYRYTVWVGFNPDEFLANFSDIHAGELYFVDSDPLQDHNMYNDSQGGDLFQLLMP"
32.1,5.94,7,"CIP-treated dephosphorylated iduronate-2-sulfatase (dpIDS) (enzyme, dephosphorylated with acrylic bead-bound calf intestine alkaline phosphatase; M6P content reduced to 0.15 pmol M6P/pmol protein (Table 3)) SETQANSTTDALNVLLIIVDDLRPSLGCYGDKLVRSPNIDQLASHSLLFQNAFAQQAVCAPSRVSFLTGRRPDTTRLYDFNSYWRVHAGNFSTIPQYFKENGYVTMSVGKVFHPGISSNHTDDSPYSWSFPPYHPSSEKYENTKTCRGPDGELHANLLCPVDVLDVPEGTLPDKQSTEQAIQLLEKMKTSASPFFLAVGYHKPHIPFRYPKEFQKLYPLENITLAPDPEVPDGLPPVAYNPWMDIRQREDVQALNISVPYGPIPVDFQRKIRQSYFASVSYLDTQVGRLLSALDDLQLANSTIIAFTSDHGWALGEHGEWAKYSNFDVATHVPLIFYVPGRTASLPEAGEKLFPYLDPFDSASQLMEPGRQSMDLVELVSLFPTLAGLAGLQVPPRCPVPSFHVELCREGKNLLKHFRFRDLEEDPYLPGNPRELIAYSQYPRPSDIPQWNSDKPSLKDIKIMGYSIRTIDYRYTVWVGFNPDEFLANFSDIHAGELYFVDSDPLQDHNMYNDSQGGDLFQLLMP"
